Drawing on paper PMC10648076, “Statistical Improvement of rGILCC 1 and rPOXA 1B Laccases Activity Assay Conditions Supported by Molecular Dynamics” (Molecules, 2023), this text covers Km and Vmax for one protein.

Substrate in the data set: CCn1c(=NN=c2sc3cc(S(=O)(=O)O)ccc3n2CC)sc2cc(S(=O)(=O)O)ccc21
Kind of data set: spectrophotometric ABTS oxidation; Michaelis-Menten fit. The format is biochemical, Pleurotus ostreatus. Particulars: 100 mM sodium citrate buffer, pH 3.0 ± 0.2, 25 °C, apparent constant, enzyme concentrate. An excerpt:
spectrophotometric ABTS oxidation; Michaelis-Menten fit on rPOXA 1B

B1: rPOXA 1B (Pleurotus ostreatus) (protein)
chain: SIGPRGTLNIANKVIQPDGFYRSTVLAGGSYPGPLIKGKTGDRFQINVVNKLADTSMPVDTSIHWHGLFVKGHNWADGPAMVTQCPIVPGHSFLYDFEVPDQAGTFWYHSHLGTQYCDGLRGPLVVYSKNDPHKRLYDVDDESTVLTVGDWYHAPSLSLTGVPHPDSTLFNGLGRSLNGPASPLYVMNVVKGKRYRIRLINTSCDSNYQFSIDGHTFTVIEADGENTQPLQVDQVQIFAGQRYSLVLNANQAVGNYWIRANPNSGDPGFENQMNSAILRYKGARSIDPTTPEQNATNPLHEYNLRPLIKKPAPGKPFPGGADHNINLNFAFDPATALFTANNHTFVPPTVPVLLQILSGTRDAHDLAPAGSIYDIKLGDVVEITMPALVFAGPHPIHLHGHTFAVVRSAGSSTYNYENPVRRDVVSIGDDPTDNVTIRFVADNAGPWFLHCHIDWHLDLGFAVVFAEGVNQTAAANPVPEAWNNLCPIYNSSNPSKLLMGTNAIGRLPAPLKA
notes: secreted from Pichia pastoris/pGAPZαA-LaccPost-Stop (Clone 1); recombinant culture concentrate, not purified
As to B1, the Km worked out at 37.2 µM and the Vmax is 10.5 µM/min.

By Km is commonly meant the substrate concentration at which the rate is half of its maximum. The term Vmax denotes the top rate of the reaction or transport when substrate is in excess.
